The record followed here is article PMC1450329.

Read-outs that look alike come from different tables or passages of the source.

Holding throughout (experiment): fluorescence anisotropy
(In general: In fluorescence polarisation assays a small probe gives low polarisation when free and higher when bound to something large.)

One data set concerns the target T1, MutS-E38A (Escherichia coli, UniProt P23909 1-853, E38A).
T1 sequence: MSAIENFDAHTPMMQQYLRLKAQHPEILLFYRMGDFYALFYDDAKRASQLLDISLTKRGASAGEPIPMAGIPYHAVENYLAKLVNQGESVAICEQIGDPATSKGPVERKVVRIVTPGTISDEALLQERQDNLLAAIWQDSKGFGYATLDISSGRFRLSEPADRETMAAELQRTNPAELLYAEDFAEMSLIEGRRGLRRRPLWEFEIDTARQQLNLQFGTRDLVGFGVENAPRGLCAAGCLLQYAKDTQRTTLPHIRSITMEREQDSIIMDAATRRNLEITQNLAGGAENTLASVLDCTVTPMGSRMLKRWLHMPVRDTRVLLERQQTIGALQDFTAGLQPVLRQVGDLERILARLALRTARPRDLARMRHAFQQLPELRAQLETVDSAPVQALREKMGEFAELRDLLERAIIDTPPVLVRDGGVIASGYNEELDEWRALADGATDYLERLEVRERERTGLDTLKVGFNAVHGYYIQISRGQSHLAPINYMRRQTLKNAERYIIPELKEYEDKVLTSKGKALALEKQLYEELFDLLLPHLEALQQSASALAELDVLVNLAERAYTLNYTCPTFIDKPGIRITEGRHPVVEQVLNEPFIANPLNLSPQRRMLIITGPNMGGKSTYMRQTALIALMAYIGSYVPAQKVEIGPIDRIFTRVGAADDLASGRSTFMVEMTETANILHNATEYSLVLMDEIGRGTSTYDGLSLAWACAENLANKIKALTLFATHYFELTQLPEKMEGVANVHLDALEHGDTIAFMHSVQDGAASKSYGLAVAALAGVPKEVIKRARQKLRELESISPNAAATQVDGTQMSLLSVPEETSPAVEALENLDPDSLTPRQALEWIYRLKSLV

The target of data set [1] is T2, MutS wild-type (Escherichia coli, UniProt P23909 1-853).
T2 sequence: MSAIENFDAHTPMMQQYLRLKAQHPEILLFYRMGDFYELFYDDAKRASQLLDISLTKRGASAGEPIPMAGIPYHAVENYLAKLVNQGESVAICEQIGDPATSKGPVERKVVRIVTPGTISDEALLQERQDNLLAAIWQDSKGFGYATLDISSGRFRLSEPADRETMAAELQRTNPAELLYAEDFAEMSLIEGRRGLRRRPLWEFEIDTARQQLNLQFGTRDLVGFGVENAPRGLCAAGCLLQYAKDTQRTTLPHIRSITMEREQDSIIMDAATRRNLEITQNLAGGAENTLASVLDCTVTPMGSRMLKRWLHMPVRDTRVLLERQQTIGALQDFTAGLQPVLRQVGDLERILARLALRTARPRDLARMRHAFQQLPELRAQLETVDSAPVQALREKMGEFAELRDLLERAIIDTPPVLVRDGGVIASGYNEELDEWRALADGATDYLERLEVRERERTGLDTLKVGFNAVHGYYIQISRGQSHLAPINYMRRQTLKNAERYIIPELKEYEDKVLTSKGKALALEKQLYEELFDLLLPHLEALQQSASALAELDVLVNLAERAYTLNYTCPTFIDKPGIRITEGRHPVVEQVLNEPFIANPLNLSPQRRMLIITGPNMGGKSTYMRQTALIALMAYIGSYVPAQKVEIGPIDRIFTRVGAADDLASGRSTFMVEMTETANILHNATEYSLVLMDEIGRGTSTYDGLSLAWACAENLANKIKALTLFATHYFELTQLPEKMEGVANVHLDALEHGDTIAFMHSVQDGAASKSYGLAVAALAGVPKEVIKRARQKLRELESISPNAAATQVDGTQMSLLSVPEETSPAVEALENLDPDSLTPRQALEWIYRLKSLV

The target of data set [2] is T2, MutS wild-type. This is another data set of the same source.

B1: G/C homoduplex 30mer (dsDNA)
DNA 1: ACCTGTCTGGCAACACTGTCACCGTCGTAT
DNA 2: ATACGACGGTGACAGTGTTGCCAGACAGGT
For orientation: Kd means the equilibrium constant for the complex coming apart. Low readings indicate tighter binding, high ones weaker binding. For B1, the Kd was 610 ± 58 nM with MutS-E38A and 1080 ± 720 nM in the data set with MutS wild-type [1].

B2: G/T mismatch heteroduplex 30mer (dsDNA)
DNA 1: ACCTGTCTGGCAACACTGTCACCGTCGTAT
DNA 2: ATACGACGGTGACAGTGTTGCTAGACAGGT
As for B2, the Kd turned out to be 160 ± 58 nM in the data set with MutS-E38A and 100 ± 8 nM with MutS wild-type [2].

B3: CP-GpG/CC cisplatinated homoduplex 30mer (dsDNA)
DNA 1: ACCTGTCTGGCAACACTGTCACCGTCGTAT
DNA 2: ATACGACGGTGACAGTGTTGCCAGACAGGT
modifications: cisplatin 1,2-GpG intrastrand cross-link at G9-G10 of strand 1
As for B3, the Kd with MutS-E38A amounted to 600 ± 78 nM; in the data set with MutS wild-type [1] it was 1340 ± 580 nM; with MutS wild-type [2], 1300 ± 65 nM.

B4: CP-GpG/CT cisplatinated mismatch 30mer (dsDNA)
DNA 1: ACCTGTCTGGCAACACTGTCACCGTCGTAT
DNA 2: ATACGACGGTGACAGTGTTGCTAGACAGGT
modifications: cisplatin 1,2-GpG intrastrand cross-link at G9-G10 of strand 1
For the molecule B4, the Kd in the data set with MutS-E38A turned out to be 200 ± 69 nM; with MutS wild-type [2] it was 360 ± 46 nM.
